# Reference: publication PMC5656594, “Probing Resistance Mutations in Retroviral Integrases by Direct Measurement of Dolutegravir Fluorescence”
# B1: Fl-PFVCAAT (Fl-DNA#1) (dsDNA)
# DNA 1: TATACAAAATTCCATGACAAT
# DNA 2: ATTGTCATGGAATTTTGTATA
# B2: Fl-DNA#8 (dsDNA)
# DNA 1: GGAATCTAGCGGCGCATCAAT
# DNA 2: ATTGATGCGCCGCTAGATTCC
# B3: Fl-DNA#9 (dsDNA)
# DNA 1: GGAATCTAGCGGCGCATAGGT
# DNA 2: ACCTATGCGCCGCTAGATTCC
# B4: Fl-DNA#13 (processed LTR end) (dsDNA)
# DNA 1: TATACAAAATTCCATGACA
# DNA 2: ATTGTCATGGAATTTTGTATA
# Molecular target: PFV integrase wt (INPFV) (prototype foamy virus, UniProt P14350 752-1143)
# Assay: fluorescence anisotropy; 1 mM Mg2+; stoichiometric IN + DNA; 20 mM Tris pH 7.2, 50 mM NaCl, 1 mM DTT, 10% DMSO, 1 mM (or 10 mM) Mg2+, 25 °C
# Details: protein: recombinant, tags: His-tag, chain copies: 4
Binder,"binding result (label: fluorescein, blunt)",other results
B1,–,"binding result (label: 5'-fluorescein on reactive strand, blunt): binds"
B2,binds,–
B3,binds,–
B4,–,"binding result (label: fluorescein, 5' overhang 2 nt on non-transferred strand): binds"
